Data published in paper PMC2810376 (The EMBO Journal, 2010).

B1: Tfg1, subunit of yeast TFIIF (natural protein, S. cerevisiae, UniProt P41895 1-735, looked up)
chain: MSRRNPPGSRNGGGPTNASPFIKRDRMRRNFLRMRMGQNGSNSSSPGVPNGDNSRGSLVKKDDPEYAEEREKMLLQIGVEADAGRSNVKVKDEDPNEYNEFPLRAIPKEDLENMRTHLLKFQSKKKINPVTDFHLPVRLHRKDTRNLQFQLTRAEIVQRQKEISEYKKKAEQERSTPNSGGMNKSGTVSLNNTVKDGSQTPTVDSVTKDNTANGVNSSIPTVTGSSVPPASPTTVSAVESNGLSNGSTSAANGLDGNASTANLANGRPLVTKLEDAGPAEDPTKVGMVKYDGKEVTNEPEFEEGTMDPLADVAPDGGGRAKRGNLRRKTRQLKVLDENAKKLRFEEFYPWVMEDFDGYNTWVGSYEAGNSDSYVLLSVEDDGSFTMIPADKVYKFTARNKYATLTIDEAEKRMDKKSGEVPRWLMKHLDNIGTTTTRYDRTRRKLKAVADQQAMDEDDRDDNSEVELDYDEEFADDEEAPIIDGNEQENKESEQRIKKEMLQANAMGLRDEEAPSENEEDELFGEKKIDEDGERIKKALQKTELAALYSSDENEINPYLSESDIENKENESPVKKEEDSDTLSKSKRSSPKKQQKKATNAHVHKEPTLRVKSIKNCVIILKGDKKILKSFPEGEWNPQTTKAVDSSNNASNTVPSPIKQEEGLNSTVAEREETPAPTITEKDIIEAIGDGKVNIKEFGKFIRRKYPGAENKKLMFAIVKKLCRKVGNDHMELKKE
B2: Tfg2, subunit of yeast TFIIF, with a C-terminal TAP tag (natural protein, S. cerevisiae, UniProt P41896 1-400, looked up)
chain: MSSGSAGAPALSNNSTNSVAKEKSGNISGDEYLSQEEEVFDGNDIENNETKVYEESLDLDLERSNRQVWLVRLPMFLAEKWRDRNNLHGQELGKIRINKDGSKITLLLNENDNDSIPHEYDLELTKKVVENEYVFTEQNLKKYQQRKKELEADPEKQRQAYLKKQEREEELKKKQQQQKRRNNRKKFNHRVMTDRDGRDRYIPYVKTIPKKTAIVGTVCHECQVMPSMNDPNYHKIVEQRRNIVKLNNKERITTLDETVGVTMSHTGMSMRSDNSNFLKVGREKAKSNIKSIRMPKKEILDYLFKLFDEYDYWSLKGLKERTRQPEAHLKECLDKVATLVKKGPYAFKYTLRPEYKKLKEEERKATLGELADEQTGSAGDNAQGDAEADLEDEIEMEDVV

Legend:
[1] = biological target: Rpb2, second largest subunit of RNA polymerase II (S. cerevisiae, UniProt P08518 1-1224); assay: cross-linking
[2] = biological target: Rpb1, subunit of RNA polymerase II (S. cerevisiae, UniProt P04050 1-1733); assay: cross-linking
Rpb1, subunit of RNA polymerase II, sequence (P04050 whole entry): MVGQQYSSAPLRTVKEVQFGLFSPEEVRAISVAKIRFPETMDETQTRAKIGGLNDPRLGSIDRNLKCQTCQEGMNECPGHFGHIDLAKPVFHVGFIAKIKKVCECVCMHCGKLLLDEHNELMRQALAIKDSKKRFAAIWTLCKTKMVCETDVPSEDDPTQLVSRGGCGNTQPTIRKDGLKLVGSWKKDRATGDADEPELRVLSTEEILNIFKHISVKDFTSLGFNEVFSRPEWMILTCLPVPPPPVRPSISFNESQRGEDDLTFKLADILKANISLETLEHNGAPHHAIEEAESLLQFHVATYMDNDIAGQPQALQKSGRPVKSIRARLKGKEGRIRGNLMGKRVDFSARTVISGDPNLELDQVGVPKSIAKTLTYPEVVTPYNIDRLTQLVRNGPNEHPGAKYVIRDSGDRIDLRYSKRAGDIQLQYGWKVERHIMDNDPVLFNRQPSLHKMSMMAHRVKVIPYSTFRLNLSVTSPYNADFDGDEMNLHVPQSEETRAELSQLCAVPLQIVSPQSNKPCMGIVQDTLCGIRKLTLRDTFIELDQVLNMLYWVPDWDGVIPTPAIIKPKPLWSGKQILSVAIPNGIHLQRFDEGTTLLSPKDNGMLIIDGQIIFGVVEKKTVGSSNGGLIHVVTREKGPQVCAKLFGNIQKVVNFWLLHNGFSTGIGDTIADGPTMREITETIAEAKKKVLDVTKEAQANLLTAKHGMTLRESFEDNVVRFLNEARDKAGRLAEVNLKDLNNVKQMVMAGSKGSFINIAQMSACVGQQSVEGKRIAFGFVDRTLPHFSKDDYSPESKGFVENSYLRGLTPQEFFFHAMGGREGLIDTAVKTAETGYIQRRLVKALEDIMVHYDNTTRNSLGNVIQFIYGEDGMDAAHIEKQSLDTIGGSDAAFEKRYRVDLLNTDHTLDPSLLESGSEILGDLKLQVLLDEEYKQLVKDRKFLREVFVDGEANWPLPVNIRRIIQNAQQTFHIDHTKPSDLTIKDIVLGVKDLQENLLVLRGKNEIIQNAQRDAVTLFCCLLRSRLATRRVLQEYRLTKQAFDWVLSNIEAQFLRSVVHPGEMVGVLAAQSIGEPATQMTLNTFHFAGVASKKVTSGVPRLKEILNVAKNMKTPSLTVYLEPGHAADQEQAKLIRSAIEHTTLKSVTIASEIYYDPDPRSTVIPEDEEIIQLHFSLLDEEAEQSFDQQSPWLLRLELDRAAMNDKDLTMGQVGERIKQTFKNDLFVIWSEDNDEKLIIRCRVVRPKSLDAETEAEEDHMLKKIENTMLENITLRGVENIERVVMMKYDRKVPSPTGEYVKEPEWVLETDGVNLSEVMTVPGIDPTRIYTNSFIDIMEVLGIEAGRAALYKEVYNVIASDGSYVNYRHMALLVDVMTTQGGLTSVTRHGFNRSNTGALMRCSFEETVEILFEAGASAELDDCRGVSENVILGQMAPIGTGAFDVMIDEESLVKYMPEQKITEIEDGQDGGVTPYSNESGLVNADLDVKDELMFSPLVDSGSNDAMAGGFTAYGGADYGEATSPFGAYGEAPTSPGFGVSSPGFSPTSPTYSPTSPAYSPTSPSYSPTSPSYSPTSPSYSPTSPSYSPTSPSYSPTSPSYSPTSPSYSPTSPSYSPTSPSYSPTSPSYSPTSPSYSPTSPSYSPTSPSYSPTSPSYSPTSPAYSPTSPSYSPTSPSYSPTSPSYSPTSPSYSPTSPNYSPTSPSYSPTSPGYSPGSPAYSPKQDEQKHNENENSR

Rpb2, second largest subunit of RNA polymerase II, sequence (P08518 whole entry): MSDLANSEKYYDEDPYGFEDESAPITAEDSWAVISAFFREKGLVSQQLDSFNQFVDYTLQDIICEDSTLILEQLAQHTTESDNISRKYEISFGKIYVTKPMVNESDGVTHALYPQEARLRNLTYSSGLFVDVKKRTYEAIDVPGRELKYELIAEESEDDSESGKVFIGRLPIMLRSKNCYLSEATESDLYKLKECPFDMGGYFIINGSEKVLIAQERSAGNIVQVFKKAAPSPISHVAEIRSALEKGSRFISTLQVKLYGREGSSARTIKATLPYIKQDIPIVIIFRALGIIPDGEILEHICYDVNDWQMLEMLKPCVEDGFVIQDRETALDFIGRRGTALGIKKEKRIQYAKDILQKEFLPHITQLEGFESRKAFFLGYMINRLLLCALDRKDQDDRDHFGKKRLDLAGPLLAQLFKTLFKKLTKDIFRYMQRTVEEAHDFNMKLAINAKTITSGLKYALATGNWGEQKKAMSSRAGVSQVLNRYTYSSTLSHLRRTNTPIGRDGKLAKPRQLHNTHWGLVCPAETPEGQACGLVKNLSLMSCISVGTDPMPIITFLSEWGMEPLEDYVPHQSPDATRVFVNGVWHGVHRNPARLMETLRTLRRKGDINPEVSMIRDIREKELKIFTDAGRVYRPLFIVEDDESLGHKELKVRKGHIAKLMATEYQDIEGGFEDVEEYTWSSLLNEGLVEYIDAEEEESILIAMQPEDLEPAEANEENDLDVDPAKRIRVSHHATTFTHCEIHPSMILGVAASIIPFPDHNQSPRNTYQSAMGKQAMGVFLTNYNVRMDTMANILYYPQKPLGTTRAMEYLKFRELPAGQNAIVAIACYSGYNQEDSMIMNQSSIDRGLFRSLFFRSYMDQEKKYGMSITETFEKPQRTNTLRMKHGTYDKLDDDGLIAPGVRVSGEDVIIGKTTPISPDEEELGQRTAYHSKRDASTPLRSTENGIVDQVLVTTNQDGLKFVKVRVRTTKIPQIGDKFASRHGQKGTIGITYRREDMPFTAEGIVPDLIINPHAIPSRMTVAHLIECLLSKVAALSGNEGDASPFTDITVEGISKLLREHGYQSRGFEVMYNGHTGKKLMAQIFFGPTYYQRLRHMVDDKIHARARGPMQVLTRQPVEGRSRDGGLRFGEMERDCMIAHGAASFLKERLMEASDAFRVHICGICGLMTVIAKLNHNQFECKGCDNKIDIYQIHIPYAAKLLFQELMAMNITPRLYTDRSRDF

Row | Binder | binding result [1] | binding result [2]
1 | B1 | binds | binds
2 | B2 | binds | 
